Where no end group is shown, it is not given here.
Assays:
myostatin [1] = target: T1, myostatin (Homo sapiens, UniProt O14793); assay: BIAcore affinity analysis on immobilized myostatin; format: binding; details: Biacore assay
T1 construct: To produce mature myostatin, the pooled promyostatin was enzymatically cleaved between the propeptide and mature myostatin C terminal; made in house
T1 sequence (O14793 267-375): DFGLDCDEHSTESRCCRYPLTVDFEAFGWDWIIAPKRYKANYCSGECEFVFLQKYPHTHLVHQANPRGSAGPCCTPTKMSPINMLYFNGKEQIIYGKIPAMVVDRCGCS
Description: The antagonists including the binding agents described herein can be tested for their ability to bind myostatin and inhibit or block myostatin activity. Any number of assays or animal tests may be used to determine the ability of the agent to inhibit or block myostatin activity. Several assays used for characterizing the peptides and peptibodies of the present invention are described in the Examples below. One assay is the C2C12 pMARE-luc assay which makes use of a myostatin-responsive cell line (C2C12 myoblasts) transfected with a luciferase reporter vector containing myostatin/activin response elements (MARE). Exemplary peptibodies are assayed by pre-incubating a series of peptibody dilutions with myostatin, and then exposing the cells to the incubation mixture. The resulting luciferase activity is determined, and a titration curve is generated from the series of peptibody dilutions. The IC50 (the concentration of peptibody to achieve 50% inhibition of myostatin activity as measured by luciferase activity) was then determined. […]
Direct binding assays were used to screen and rank the peptibodies in order of their ability to bind to immobilized myostatin. […] Peptibody binding kinetic parameters including ka (association rate constant), kd (dissociation rate constant) and KD (dissociation equilibrium constant) were determined using the BIA evaluation 3.1 computer program (Biacore, Inc.). […]

myostatin [2] = target: T1, myostatin; assay: C2C12 pMARE-luc cell based myostatin activity assay
Description: The antagonists including the binding agents described herein can be tested for their ability to bind myostatin and inhibit or block myostatin activity. Any number of assays or animal tests may be used to determine the ability of the agent to inhibit or block myostatin activity. Several assays used for characterizing the peptides and peptibodies of the present invention are described in the Examples below. One assay is the C2C12 pMARE-luc assay which makes use of a myostatin-responsive cell line (C2C12 myoblasts) transfected with a luciferase reporter vector containing myostatin/activin response elements (MARE). Exemplary peptibodies are assayed by pre-incubating a series of peptibody dilutions with myostatin, and then exposing the cells to the incubation mixture. The resulting luciferase activity is determined, and a titration curve is generated from the series of peptibody dilutions. The IC50 (the concentration of peptibody to achieve 50% inhibition of myostatin activity as measured by luciferase activity) was then determined. A second assay described below is a BIAcore® assay to determine the kinetic parameters ka (association rate constant), kd (dissociation rate constant), and KD (dissociation equilibrium constant) for the myostatin binding agents and other antagonists such as antibodies capable of binding myostatin and its receptor. Lower dissociation equilibrium constants (KD, expressed in nM) indicated a greater affinity of the peptibody for myostatin. […] These assays are described in Example 3.
C2C12 Cell Based Myostatin Activity Assay
A myostatin-responsive reporter cell line was generated by transfection of C2C12 myoblast cells (ATCC No: CRL-1772) with a pMARE-luc construct. The pMARE-luc construct was made by cloning twelve repeats of the CAGA sequence, representing the myostatin/activin response elements (Dennler et al. EMBO 17: 3091-3100 (1998)) into a pLuc-MCS reporter vector (Stratagene cat #219087) upstream of the TATA box. The myoblast C2C12 cells naturally express myostatin/activin receptors on its cell surface. When myostatin binds the cell receptors, the Smad pathway is activated, and phosphorylated Smad binds to the response element (Macias-Silva et al. Cell 87:1215 (1996)), resulting in the expression of the luciferase gene. Luciferase activity is then measured using a commercial luciferase reporter assay kit (cat # E4550, Promega, Madison, Wis.) according to manufacturer's protocol. A stable line of C2C12 cells that had been transfected with pMARE-luc (C2C12/pMARE clone #44) was used to measure myostatin activity according to the following procedure.
Equal numbers of the reporter cells (C2C12/pMARE clone #44) were plated into 96 well cultures. A first round screening using two dilutions of peptibodies was performed with the myostatin concentration fixed at 4 nM. Recombinant mature myostatin was preincubated for 2 hours at room temperature with peptibodies at 40 nM and 400 nM respectively. The reporter cell culture was treated with the myostatin with or without peptibodies for six hours. Myostatin activity was measured by determining the luciferase activity in the treated cultures. This assay was used to initially identify peptibody hits that inhibited the myostatin signaling activity in the reporter assay. Subsequently, a nine point titration curve was generated with the myostatin concentration fixed at 4 nM. The myostatin was preincubated with each of the following nine concentrations of peptibodies: […], 0.4 nM, 4 nM, 20 nM, 40 nM, 200 nM, 400 nM, 2 uM and 4 uM for two hours before adding the mixture to the reporter cell culture. The IC50 values were for a number of exemplary peptibodies are provided in Tables III and for affinity matured peptibodies, in Table VIII.

[3] = target: T2, myostatin binding to ActRIIB/Fc (Homo sapiens, UniProt O14793); assay: Blocking assay on ActRIIB/Fc surface (BIAcore)
T2 construct: To produce mature myostatin, the pooled promyostatin was enzymatically cleaved between the propeptide and mature myostatin C terminal; host or cells: myostatin: E. coli K-12 strain 2596; ActRIIB/Fc purchased
T2 sequence (O14793 267-375): T1 sequence (O14793 267-375)
Protocol: Blocking Assay on ActRIIB/Fc Surface
Blocking assays were carried out using immobilized ActRIIB/Fc (R&D Systems, Minneapolis, Minn.) and myostatin in the presence and absence of peptibodies with the BIAcore® assay system. […] Baseline myostatin-ActRIIB/Fc binding was first determined in the absence of any peptibody.
For early screening studies, peptibodies were diluted to 4 nM, 40 nM, and 400 nM in sample buffer and incubated with 4 nM myostatin (also diluted in sample buffer). The peptibody:ligand mixtures were allowed to reach equilibrium at room temperature (at least 5 hours) and then were injected over the immobilized ActRIIB/Fc surface for 20 to 30 minutes at a flow rate of 10 μl/min. […] Selected peptibodies were further characterized using the blocking assay of a full concentration series in order to derive IC50 values (for neutralizing peptibodies) or EC50 (for non-neutralizing peptibodies). The peptibody samples were serially diluted from 200 nM to […] in sample buffer and incubated with […] myostatin at room temperature to reach equilibrium (minimum of five hours) before injected over the immobilized ActRIIB/Fc surface for 20 to 30 minutes at a flow rate of 10 μl/min. Following the sample injection, bound ligand was allowed to dissociate from the receptor for 3 minutes.

myostatin [4] = target: T1, myostatin; assay: Epitope binning for peptibodies (BIAcore); format: binding
Protocol: Epitope Binning for Peptibodies
A purified peptibody was immobilized on a BIAcore chip to capture myostatin before injection of a second peptibody, and the amount of secondary peptibody bound to the captured myostatin was determined Only peptibodies with distinct epitopes will bind to the captured myostatin, thus enabling the binning of peptibodies with similar or distinct epitope binding properties.

Kd (myostatin [1]): ~2 nM
inhibition of myostatin activity in cell-based assay (myostatin [2]): inhibit myostatin activity
IC50 (myostatin [2]; pMARE luc cell-based assay, myostatin 4 nM): ~23 nM
blocking of myostatin/ActRIIB/Fc interactions [3]: does not block
epitope on myostatin (binning) (myostatin [4]): bind to different epitopes
Substance: TN8-19: peptibody; peptide QGHCTRWPWMCPPY (cysteine pairing not given here; also: Fc fusion peptibody)
IC50 of peptibody compared with peptide (FIG. 1) (myostatin [2]; C2C12 based assay): significantly less than that of the peptide

Source: patent US20160038588A1, “Myostatin Antagonism in Human Subjects” (AMGEN INC., priority 2013, published 2016)
